Experimental findings from patent US20220389106A1 (University of Texas, published 2022) are described below.

First the molecules themselves.
B1: anti-hu-EphA10 antibody Clone 4 (antibody, IgG1, V domains shown)
VH: EVKLEESGGGLVQPGGSMKLSCVASGFTFSYYWMNWVRQSPEKGLEWVAEIRLKSNNYATHYAESVKGRFTISRDDSKSSVYLQMNNLRAEDSGIYYCTFYYGSSAWFAYWGQGTLVTVSA
VL: DIQMTQSPASLSASVGETVTITCRASENIYSYLAWYQQKQGKSPQLLVYNVKTLTEGVPSRFSGSGSGTQFSLKIDSLQPEDFGSYYCQHHYVTPPTFGAGTKLELK
B2: anti-hu-EphA10 antibody Clone 8 (antibody, IgG1, V domains shown)
VH: QVQLQQSGPELVKPGPLVKISCKASGYTFTSYDITWVKQRPGQGLEWIGWIYPGDGSTKYNEKFKGKATLTADKSSSTAYMQLSSLTSENSAVYFCARGGRLPYFDYWGQGTTLTVSS
VL: NIVLTQSPASLAVSLGQRATISCRASESVDSYGNSFMHWYQQKPGQPPKLLIYLASNLESAVPARFSGSGSRTDFTLTIDPVEADDAATYYCQQNNEYPWTFGGGTKLEIK
B3: anti-hu-EphA10 antibody Clone 9 (antibody, IgG1, V domains shown)
VH: QVQLQQSGAELMKPGASVKISCKATGYTFSTYWIEWVKQRPGHGLEWIGEILPGSGRTNYKEKFKDKATFTANTSSTTAYMQLSSLTSEDSAVYYCAIDWYWGQGTTLTVSS
VL: QIVLTQSPAIMSASPGEKVTITCSASSSVSYMYWFQQKPGTSPKLWIYSTSNLASGVPARFSGSGSGTSYSLTISRMEAEDAATYYCQQRNSYPPTFGGGTKLEIK
notes: also called anti-EphA10 (clone 9); anti-EphA10 (clone 9)-pHrodo

The target of this experiment is T1, recombinant hu-EphA10 Fc chimera protein [the extracellular domain (Glu34-Ala565)] (human, UniProt Q5JZY3 34-565).
T1 construct: range 34-565; Purified from 293T cells; also called hu-EphA10 Fc protein; not shown: Fc part of the chimera
T1 sequence (looked up): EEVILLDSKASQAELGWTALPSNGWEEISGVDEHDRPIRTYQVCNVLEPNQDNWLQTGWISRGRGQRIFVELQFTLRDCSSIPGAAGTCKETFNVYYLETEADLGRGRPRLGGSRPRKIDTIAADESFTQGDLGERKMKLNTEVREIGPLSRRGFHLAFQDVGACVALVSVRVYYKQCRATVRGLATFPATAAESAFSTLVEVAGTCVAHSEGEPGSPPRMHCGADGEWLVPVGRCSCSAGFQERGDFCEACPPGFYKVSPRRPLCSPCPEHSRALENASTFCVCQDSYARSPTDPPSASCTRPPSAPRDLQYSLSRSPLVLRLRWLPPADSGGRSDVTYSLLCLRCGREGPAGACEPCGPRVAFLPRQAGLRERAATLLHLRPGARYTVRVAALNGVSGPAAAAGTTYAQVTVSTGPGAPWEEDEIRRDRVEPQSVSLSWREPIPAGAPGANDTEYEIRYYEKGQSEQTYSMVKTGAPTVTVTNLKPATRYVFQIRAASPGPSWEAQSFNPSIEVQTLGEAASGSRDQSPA
Put plainly: ELISA screening (FIG. 1C). For orientation: An ELISA detects its analyte on a solid surface through an enzyme-linked reagent.
For B1, the binding result is given as “binds”.

For the molecule B2, the binding result is “binds”. The entry for B3 is “binds”.
